In patent US20220064301A1 (XILIO DEVELOPMENT, published 2022):
Read-outs that look alike come from different tables or passages of the source. Blank lines part the entries; values can stand above or below the binder they belong to.

What was measured:
[1] = biological target: T1, human CTLA4-Fc (R&D #7268-CT) (human, UniProt P16410 36-162); assay: huCTLA4-Fc binding ELISA (luminescence)
T1 construct: Bought reagent coated on ELISA plates; also called human CTLA-Fc; not shown: Fc part of the bought fusion; not described
Protocol: All ELISA were performed in a manner substantially similar to the description below or generally consistent with methods known in the art. Polystyrene 96-well microplates (Fisher #07-200-591) were coated with 1 μg/mL of human CTLA4-Fc (R&D #7268-CT) per well and stored overnight at 4° C. Plates were washed with 0.05% Tween in TBS (TBS-T), blocked with 1% BSA (Sigma Aldrich #B4287-25G), and washed with TBS-T. Serial dilutions of samples containing anti-CTLA4 antibodies described below were made in assay buffer (PBS+0.05% Tween+1% BSA), added to plate, and shaken orbitally at 100 RPM at room temperature for one hour. After washing with TBS-T, anti-human Kappa light chain [clone: SB81a]-HRP (Abcam #ab79115) diluted to 1:8000 in assay buffer was applied to the wells and shaken at room temperature for one hour. Plates were washed with TBS-T, HRP substrate (Super Signal Pico Chemiluminescent Substrate, Thermo #37069) was applied to plate, and luminescence was recorded using a spectrophotometer (BioTek). Data was analyzed with GraphPad Prism.

[2] = biological target: T2, FcγRIIIa on Jurkat effector cells (FcγRIIIa reporter bioassay); assay: cell-based or functional assay
[3] = biological target: T2, FcγRIIIa on Jurkat effector cells …; assay: cell-based or functional assay; remark: listed apart in the source
[4] = biological target: T2, FcγRIIIa on Jurkat effector cells …; assay: cell-based or functional assay; remark: listed apart in the source
[5] = biological target: cynomolgus CTLA4 (cynoCTLA4) (cynomolgus, UniProt G7PL88 36-161); assay: SPR, Biacore T200, 37 C
Protocol: (§1) All Surface Plasmon Resonance (SPR) analysis were performed in a manner substantially similar to the description below or generally consistent with methods known in the art. SPR was performed on certain antibodies to assess binding between the antibody, or fragment thereof, and a target protein, such as human CTLA4 (huCTLA4), cynomolgus CTLA4 (cynoCTLA4), or FcγRIIIa (CD16a). […] SPR analysis was performed on a GE Biacore T200 instrument at 37° C. The antibody and isotype control (reference channel) were coupled at 100 RU immobilization level to CM5 chip (GE Healthcare). Peptides were synthesized and diluted into HBS-EP+ running buffer (GE Healthcare). The binding data were analyzed using Biacore Evaluation Software, version 3.0.

human CTLA4 (huCTLA4) [6] = biological target: T3, human CTLA4 (huCTLA4) (human, UniProt P16410 36-161, limits assumed); assay: SPR, Biacore T200, 37 C
Protocol: as §1

human CTLA4 (huCTLA4) [7] = biological target: T3, human CTLA4 (huCTLA4); assay: SPR (Biacore), fit of the sensorgrams of FIG. 2A
Protocol: as §1

human CTLA4 (huCTLA4) [8] = biological target: T3, human CTLA4 (huCTLA4); assay: SPR, Biacore T200, 37 C; reference ipilimumab
Protocol: as §1

cynoCTLA4-Fc [9] = biological target: T4, cynoCTLA4-Fc (cynomolgus, UniProt G7PL88 36-161); assay: SPR, channel Ch2
T4 construct: also called cynomolgus CTLA4-Fc
Protocol: as §1

[10] = biological target: T5, rhCTLA4-Fc (recombinant human CTLA4-Fc) (human, UniProt P16410 36-162, limits assumed); assay: SPR, channel Ch2
T5 construct: Used in SPR with the Fabs; not shown: Fc part; not described
Protocol: as §1

cynoCTLA4-Fc [11] = biological target: T4, cynoCTLA4-Fc; assay: SPR, channel Ch3
Protocol: as §1

[12] = biological target: T5, rhCTLA4-Fc (recombinant human CTLA4-Fc); assay: SPR, channel Ch3
Protocol: as §1

cynoCTLA4-Fc [13] = biological target: T4, cynoCTLA4-Fc; assay: SPR, channel Ch1
Protocol: as §1

[14] = biological target: T5, rhCTLA4-Fc (recombinant human CTLA4-Fc); assay: SPR, channel Ch1
Protocol: as §1

cynoCTLA4-Fc [15] = biological target: T4, cynoCTLA4-Fc; assay: SPR, average of three channels
Protocol: as §1

[16] = biological target: T5, rhCTLA4-Fc (recombinant human CTLA4-Fc); assay: SPR, average of three channels
Protocol: as §1

T5 sequence (P16410 36-162 limits assumed): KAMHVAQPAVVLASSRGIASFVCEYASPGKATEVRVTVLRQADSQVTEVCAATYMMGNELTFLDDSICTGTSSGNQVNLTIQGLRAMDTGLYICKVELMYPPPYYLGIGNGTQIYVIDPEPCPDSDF
T1 sequence (P16410 36-162 limits assumed): as above
T3 sequence (P16410 36-161 limits assumed): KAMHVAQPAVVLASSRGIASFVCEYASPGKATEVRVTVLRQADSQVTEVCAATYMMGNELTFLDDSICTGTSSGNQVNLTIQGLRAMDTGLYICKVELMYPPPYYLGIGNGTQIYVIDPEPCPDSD
T2 sequence (P08637 whole entry): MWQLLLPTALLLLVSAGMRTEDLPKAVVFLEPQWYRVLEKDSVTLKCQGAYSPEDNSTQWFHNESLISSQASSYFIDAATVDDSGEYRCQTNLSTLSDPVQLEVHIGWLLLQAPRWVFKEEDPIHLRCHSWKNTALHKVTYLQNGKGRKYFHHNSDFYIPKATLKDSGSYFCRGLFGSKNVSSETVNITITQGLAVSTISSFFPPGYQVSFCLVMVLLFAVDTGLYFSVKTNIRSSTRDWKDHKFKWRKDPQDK
T4 sequence (G7PL88 entry or part of it limits assumed): as the sequence (P16410 36-161 limits assumed) above, with S14N, I18T, L106M counted along it
Sequence of cynomolgus CTLA4 (cynoCTLA4) (G7PL88 entry or part of it limits assumed): as the sequence (P16410 36-161 limits assumed) above, with S14N, I18T, L106M counted along it

B4: Antibody 1-2 (version of Antibody 1 having a S239D mutation and an I332E mutation in the Fc region) (antibody, V domains shown)
VH: QVQLQESGPGLVKPSETLSLTCSVTYHTITSGYDWTWIRKPPGKGMEWIGYISYSGNTNYNPSLKSRVTISRDTSKNQFFLKLSSVTAADTAVYYCASMMVPHYYVMDAWGQGTLVTVSSA
VL: DIVMTQTPLSLSVTPGQPASISCRSSQSLLNSDGNTYLYWYLQKPGQSPQLLIYLVSKLGSGVPNRFSGSGSGTDFTLKISRVEAEDVGVYYCVQGTHDPWTFGGGTKVEIKR
notes: Variable domains inferred as for Antibody 1-1; Full antibody with S239D and I332E in the Fc region
EC50 [1]: 560 pM
EC50 of reporter activation (RLU), ADCC FcγRIIIa reporter bioassay with CTLA4 target cells [2]: 0.327 ng/mL

B5: Antibody 2-1 (version of humanized anti-CTLA4 Antibody 2 having a wild-type Fc region) (antibody)
VH: not shown
VL: EIVLTQSPDFQSVTPKEKVTITCSANSALSYMYWYQQKPDQSPKLWVHGTSNLASGVPSRFSGSGSGTDFTLTINSLEAEDAATYYCHHWSNTQWTFGGGTKVEIKRTVAAPSVFIFPPSDEQLKSGTASVVCLLNNFYPREAKVQWKVDNALQSGNSQESVTEQDSKDSTYSLSSTLTLSKADYEKHKVYACEVTHQGLSSPVTKSFNRGEC
notes: Full antibody with wild-type Fc; copies: 2 + 2
EC50 [1]: 330 pM

B6: Antibody 2-6 (a version of Antibody 2 having a S239D mutation, an I332E mutation in the Fc region) (antibody)
VH: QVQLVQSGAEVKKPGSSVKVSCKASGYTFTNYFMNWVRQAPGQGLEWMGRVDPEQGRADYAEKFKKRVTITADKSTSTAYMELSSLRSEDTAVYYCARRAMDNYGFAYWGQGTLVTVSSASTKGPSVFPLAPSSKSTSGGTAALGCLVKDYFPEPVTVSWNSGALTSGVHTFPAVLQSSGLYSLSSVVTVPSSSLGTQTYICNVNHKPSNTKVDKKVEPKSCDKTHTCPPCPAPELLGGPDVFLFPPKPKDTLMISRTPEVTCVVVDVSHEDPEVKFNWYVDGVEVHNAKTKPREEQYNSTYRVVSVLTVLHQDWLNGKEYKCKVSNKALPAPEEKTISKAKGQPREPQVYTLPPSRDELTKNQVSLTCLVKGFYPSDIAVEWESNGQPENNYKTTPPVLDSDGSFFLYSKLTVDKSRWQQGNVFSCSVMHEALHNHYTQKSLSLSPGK
VL: B5 VL
notes: copies: 2 + 2
Kd [5]: 131 pM
Kd (human CTLA4 (huCTLA4) [6]): 91 pM
koff (human CTLA4 (huCTLA4) [7]): 3.33e-05 s⁻¹
kon (human CTLA4 (huCTLA4) [7]): 366000 M⁻¹ s⁻¹
fold greater binding affinity than ipilimumab (by KD) (human CTLA4 (huCTLA4) [8]): ~18 fold

B7: Antibody 2-Fab (a Fab of Antibody 2) (Fab, V domains shown)
VH: QVQLVQSGAEVKKPGSSVKVSCKASGYTFTNYFMNWVRQAPGQGLEWMGRVDPEQGRADYAEKFKKRVTITADKSTSTAYMELSSLRSEDTAVYYCARRAMDNYGFAYWGQGTLVTVSS
VL: EIVLTQSPDFQSVTPKEKVTITCSANSALSYMYWYQQKPDQSPKLWVHGTSNLASGVPSRFSGSGSGTDFTLTINSLEAEDAATYYCHHWSNTQWTFGGGTKVEIKR
notes: Fab
Kd (cynoCTLA4-Fc [9]): 794 pM
koff (cynoCTLA4-Fc [9]): 0.000229 s⁻¹
kon (cynoCTLA4-Fc [9]): 289000 M⁻¹ s⁻¹
Kd [10]: 1.51 pM
koff [10]: 5.19e-07 s⁻¹
kon [10]: 345000 M⁻¹ s⁻¹
Kd (cynoCTLA4-Fc [11]): 920 pM
koff (cynoCTLA4-Fc [11]): 0.000234 s⁻¹
kon (cynoCTLA4-Fc [11]): 254000 M⁻¹ s⁻¹
Kd [12]: 5.55 pM
koff [12]: 1.84e-06 s⁻¹
kon [12]: 331000 M⁻¹ s⁻¹
Kd (cynoCTLA4-Fc [13]): 623 pM
koff (cynoCTLA4-Fc [13]): 0.000226 s⁻¹
kon (cynoCTLA4-Fc [13]): 363000 M⁻¹ s⁻¹
Kd [14]: 4.53 pM
koff [14]: 1.63e-06 s⁻¹
kon [14]: 361000 M⁻¹ s⁻¹
Kd (cynoCTLA4-Fc [15]): 779 pM
Kd [16]: 3.86 pM

The next lines start with the values.

EC50 [1]: 410 pM
EC50 of reporter activation (RLU), ADCC FcγRIIIa reporter bioassay with CTLA4 target cells [2]: 1.05 ng/mL
B1: Antibody 1-1 (version of humanized anti-CTLA4 Antibody 1 having a wild-type Fc region) (antibody, V domains shown)
VH: B4 VH
VL: B4 VL
notes: VL 25 / VH 26 are inferred from the parallel a)/b) order of the embodiments and because 30/31 go with the CDRs of Antibody 2; Full antibody with wild-type Fc

EC50 of reporter activation (RLU), ADCC FcγRIIIa reporter bioassay with CTLA4 target cells [3]: 0.163 ng/mL
EC50 [1]: 410 pM
EC50 of reporter activation (RLU), ADCC FcγRIIIa reporter bioassay with CTLA4 target cells [2]: 0.163 ng/mL
B2: Antibody 1-aFuc (afucosylated version of Antibody 1) (antibody, V domains shown)
VH: B4 VH
VL: B4 VL
modifications: afucosylated Fc glycan
notes: Variable domains inferred as for Antibody 1-1; Afucosylated full antibody

EC50 of reporter activation (RLU), ADCC FcγRIIIa reporter bioassay with CTLA4 target cells [3]: 0.0177 ng/mL
EC50 [1]: 360 pM
EC50 of reporter activation (RLU), ADCC FcγRIIIa reporter bioassay with CTLA4 target cells [4]: 0.0177 ng/mL
B3: Antibody 2-aFuc (afucosylated version of Antibody 2) (antibody, V domains shown)
VH: QVQLVQSGAEVKKPGSSVKVSCKASGYTFTNYFMNWVRQAPGQGLEWMGRVDPEQGRADYAEKFKKRVTITADKSTSTAYMELSSLRSEDTAVYYCARRAMDNYGFAYWGQGTLVTVSSA
VL: B7 VL
modifications: afucosylated Fc glycan
notes: Afucosylated full antibody
